From US6890900B2, “Methods for treating or preventing diseases of the oral cavity” (Campina B.V., priority 2001, dated 2005)

Test system: oral culture (oral swab from a healthy adult, oral flora)
Assay: LF/GMP assay, viable plate count (pour plate) of broth culture
Type: cell-based, Streptococcus salivaris
Parameters: key to MIBC: NCF: No Effective Concentration Found
Details: 35° C.; for Colony Counts: viable plate count
Protocol: Bacterial strains used in this study were Pseudomonas aeruginosa ATCC #27853, Streptococcus mutans ATCC #33535, Streptococcus pyogenes ATCC #19615, and Actinobacillus haemophilus ATCC #43717 and an oral swab from a healthy adult. Bacteria were grown on blood/BHT media (Brain Heart Infusion Agar with protease peptone, sodium chloride, glucose, di-sodium phosphate, and agar, Oxoid, Hampshire England, Sheep's Blood) in the presence of 5% CO2 at 35° C. […] The 0.5 McFarland value is approximately equivalent to 1.0×10^8 organisms. One ml of the appropriate bacterial dilution was taken using a sterile pipette and introduced into 8 ml of sterilized BHI broth. […] By pipette, 9 ml of broth was placed into medium test tubes as means of a control and 8 ml test tubes were prepared for the concentration tests). […] This solution was filtered through a 0.45 μm filter. […] Example for calculating 2,500 ppm dilution (1,000 ppm=0.1%): [formula] [formula] [formula] To study the kinetics of LF/GMP binding, each strain of bacteria was taken separately with a sterile pipette and placed into an 8 ml BHI broth test tube, vortexed, and incubated in the presence of 1 ml of LF or GMP for 18-24 hours at 35° C. with 5% CO2. In the combination procedure, 0.5 ml of both LF and […] were taken as 1 ml inoculations. This technique was used to determine the density of living (viable) cells in inoculated broth cultures. It involves plating a bacterial sample and counting the resulting colonies after incubation. A serial dilution of the original broth was taken prior to plating. The serial dilution is necessary to reduce the density of organisms in order to create countable plates. Only plates containing between 25 and 250 colonies are considered countable. Cell densities are traditionally recorded as CFU (colony forming unit)/ml. […] Formula: [formula] The assays required the use of a pour plate technique. The pour plate technique adds a step to the conventional serial dilution. The 1 ml of dilution is added to a warm emulsion of dilute nutrient (BHI) agar to produce an agar overlay in the petri plates. After incubation, the bacterial growth covers the entire plate but individual cellular movement has been restricted by the soft agar overlay. Each colony formed is assumed to have originated from a single CFU. The plates were gently mixed, inverted, and incubated for 18-24 hour at 35° C. There is a mixture of microorganisms obtained in “normal oral flora.” Testing a swab taken from a healthy mouth cavity aided in the identification of the most common mouth flora. Experiments were conducted with the mouth culture to determine the antimicrobial effects of LF and GMP. Oral cultures were grown on BHI agar with added sheep's blood for 24 hours at 35° C. 5% CO2. […] These plates were incubated for another 24 hours. Here, isolated colonies were taken and were streaked on a BHI/Blood plate for growth of a pure culture. Streaking a plate produces isolated growth of microbial species in a mixed culture sample. Once isolated, pure cultures can be tested for species identification. The isolated colonies were Gram-stained to distinguish between Gram-positive and Gram-negative cells. The Gram stain is a differential stain in which a decolorization step occurs between the application of two basic stains. The next step was a catalase test to identify the organisms that produce the enzyme catalase. It was used to differentiate members of the catalase-positive Micrococcaceae and Staphylococci from the catalase-negative Streptococcaceae. Hydrogen peroxide was added to the bacteria and observed for a reaction (evidence of bubbles being formed). In the oral culture, three isolated colonies were tested for identification from a swabbed mouth cavity. […] This negative-catalase reaction was a confirmation of a streptococcus species. The API 20 Strep test was done on all three pure cultures to identify each species. The numbers were the results of the API 20 test. […]

B1: LF: Bovine lactoferrin, iron-binding glycoprotein purified from milk, provided by DMV International (protein, UniProt P24627 20-708, looked up)
Lactotransferrin: APRKNVRWCTISQPEWFKCRRWQWRMKKLGAPSITCVRRAFALECIRAIAEKKADAVTLDGGMVFEAGRDPYKLRPVAAEIYGTKESPQTHYYAVAVVKKGSNFQLDQLQGRKSCHTGLGRSAGWIIPMGILRPYLSWTESLEPLQGAVAKFFSASCVPCIDRQAYPNLCQLCKGEGENQCACSSREPYFGYSGAFKCLQDGAGDVAFVKETTVFENLPEKADRDQYELLCLNNSRAPVDAFKECHLAQVPSHAVVARSVDGKEDLIWKLLSKAQEKFGKNKSRSFQLFGSPPGQRDLLFKDSALGFLRIPSKVDSALYLGSRYLTTLKNLRETAEEVKARYTRVVWCAVGPEEQKKCQQWSQQSGQNVTCATASTTDDCIVLVLKGEADALNLDGGYIYTAGKCGLVPVLAENRKSSKHSSLDCVLRPTEGYLAVAVVKKANEGLTWNSLKDKKSCHTAVDRTAGWNIPMGLIVNQTGSCAFDEFFSQSCAPGADPKSRLCALCAGDDQGLDKCVPNSKEKYYGYTGAFRCLAEDVGDVAFVKNDTVWENTNGESTADWAKNLNREDFRLLCLDGTRKPVTEAQSCHLAVAPNHAVVSRSDRAAHVKQVLLHQQALFGKNGKNCPDKFCLFKSETKNLLFNDNTECLAKLGGRPTYEEYLGTEYVTAIANLKKCSTSPLLEACAFLTR
50 ppm, 24 h
  Colony Counts: 4.8 × 10^8
100 ppm, 24 h
  Colony Counts: 4.2 × 10^8
250 ppm, 24 h
  Colony Counts: 4.3 × 10^8
500 ppm, 24 h
  Colony Counts: 4.0 × 10^8
1,000 ppm, 24 h
  Colony Counts: 3.9 × 10^8
3,000 ppm, 24 h
  Colony Counts: 3.4 × 10^8
Lactoferrin/GMP 250/0 ppm (LF alone)
  Total Log Reduction: 0 log
Lactoferrin/GMP 3,000/0 ppm (LF alone)
  Total Log Reduction: 0 log
At the MIBC, vs control
  # Log Reductions: 0 log
Single agent, any tested concentration
  effect on growth (in words): not effected
Single agent, 24 h, 5% CO2
  MIBC: NCF
